Key:
HSMM myotubes = test: HSMM myotube atrophy after recombinant IGFBP1; assay type: cell-based, human
C2C12 myotubes = test: C2C12 myotube size after exposure to recombinant IGFBP1; assay type: cell-based; conditions: recombinant IGFBP1 100 ng/ml, 48 hours
Procedure: (§1) C2C12 myotubes were produced by exposing fully confluent myoblasts to DMEM containing 2% horse serum, 2 mM L-glutamine and 1% P/S, replacing the media every other day for 5 days. At 5 days post differentiation, myotubes were exposed to recombinant IGFBP1 (100 ng/ml) or empty vehicle control for 48 hours. FIG. 9 presents the results.
For myotube size: Differentiated C2C12 myotubes were fixed in ice-cold acetone: methanol for ten minutes, blocked for 1 h at room temperature and incubated overnight at 4° C. with an anti-myosin heavy chain antibody (MF-20, 1:100, Developmental Studies Hybridoma Bank). The following day, myotubes were incubated for 1 h at room temperature with an AlexaFluor 594-labeled secondary antibody (A11032, 1:500; Invitrogen). Myotubes were observed under an Axio Observer.Z1 motorized microscope (Zeiss) and analysis was performed by measuring the diameter of the narrowest portion along the multi-nucleate fibers (n=600 fibers per condition) using ImageJ software.

ITGB1 signaling = test: Western blotting of ITGB1 signaling in myotubes exposed to recombinant IGFBP1; assay type: cell-based
Procedure: as §1
For western blots (FIG. 9): Cell layer protein extracts were obtained by homogenizing entire well surface in ice-cold RIPA buffer [150 mM NaCl, 1.0% NP-40, 0.5% sodium deoxycholate, 0.1% SDS and 50 mM Tris (pH 8.0)] supplemented with inhibitor cocktails for proteases (11697498001, Roche) and phosphatases (78428, Thermo Fisher Scientific). Following a 10-min incubation on ice, cellular debris was removed by centrifugation (15 min, 14,000 g at 4° C.), the supernatant was collected and protein concentration was assessed using the BCA protein assay method (Thermo Fisher Scientific). Protein extracts (30 μg) were electrophoresed in 4-15% gradient SDS Criterion TGX precast gels (Bio-Rad) and transferred to nitrocellulose membranes (30 min at 100 V; Bio-Rad). […] Blots were again serially washed using PBST and then visualized and quantified using the Odyssey Infrared Imaging System (LI-COR Biosciences). […]

[1] = test system: osteoclast precursor cells; test: Osteoclast differentiation assay, pre-osteoclast cultures exposed to rmIGFBP1, TRAP stain; assay type: cell-based, mice; conditions: 50 ng/mL recombinant IGFBP1, 48 h
Procedure: The quantification of osteoclast differentiation in pre-osteoclast cultures exposed to rmIGFBP1 and stained for TRAP (n=5) is shown in FIG. 6. Furthermore, quantification of osteoclast differentiation in pre-osteoclasts co-cultured with AML12 previously exposed to CRC and treated with anti-IGFBP1 antibody (n=5) is shown in FIG. 7. The osteoclast differentiation assay was conducted as follows:
Bone marrow cells were isolated from at least two 4-month-old wild-type male C57BL/6 mice by flushing the bone marrow out from both tibiae and femora with 10% FBS and 1% P/S-α-MEM. Cells were cultured for 48 h. Non-adherent cells were then collected and 14×10^4 cells/cm2 were seeded on 96-well plates and cultured with RANKL 80 ng/ml (PeproTech) and M-CSF 20 ng/ml (PeproTech) added to induce osteoclast differentiation, the media was changed every 2 days. After 3 days of differentiation, 50 ng/mL of recombinant IGFBP1 or Vehicle (Control) was added to the osteoclast differentiation media for 48 h, after which cells were fixed for staining. […] Images were acquired using Axio Observer. Z1 motorized microscope (Zeiss, Oberkochen, Germany).

B1: recombinant IGFBP1: recombinant insulin-like growth factor binding protein 1 (protein)
chain: APQPWHCAPCTAERLGLCPPVPASCPEISRPAGCGCCPTCALPMGAACGVATARCAQGLSCRALPGEPRPLHALTRGQGACVPEPAAPATSTLFSSQHEEAKAAVVSADELSESPEMTEEQLLDSFHLMAPSREDQPILWNAISTYSSMRAREIADLKKWKEPCQRELYKVLERLAAAQQKAGDEIYKFYLPNCNKNGFYHSKQCETSLDGEAGLCWCVYPWSGKKIPGSLETRGDPNCHQYFNVHN
HSMM myotubes
  atrophy of HSMM myotubes: promoting atrophy
C2C12 myotubes
  atrophy of C2C12 myotubes: promoting atrophy
C2C12 myotubes; listed as Recombinant IGFBP1
  atrophy of C2C12 myotubes: promoted
ITGB1 signaling
  ERK phosphorylation: increased
  FAK phosphorylation: increased
[1]
  differentiation of osteoclast precursor cells: sufficient to promote differentiation
[1]; listed as Recombinant IGFBP1
  differentiation of osteoclast precursor cells: promoted
